Data set [1] in a line: juvenile hormone esterase (JHE) activity assay, hydrolysis of 3H-juvenile hormone to juvenile hormone acid. The note with it: purified recombinant protein from S. frugiperda:pVL-nfE91600 supernatant, size exclusion fractions. The class given is biochemical. The protocol:
Unlabeled juvenile hormone (JH; available from ICN Biomedicals, Inc., Aurora, Ohio) was diluted in hexane to concentration of about 0.025 M. Labeled 10-^3H-juvenile hormone (^3H-JH; available from Dupont-NEN) was diluted in hexane to concentration of about 80,000 cpm/μl. A JH substrate mixture was prepared by mixing about 20 μl of unlabeled JH with about 80 μl of ^3H-JH (about 5 μCi) in a 4 ml screw cap vial. The substrate mixture was then covered with nitrogen (i.e., “blanketed”) and the solvent contained in the mixture was evaporated by heating the mixture at 35° C. When just dry, about 1 ml of absolute anhydrous ethanol (final concentration 5×10^−4 M, or 6400 cpm/μl) was added to the vial. The substrate mixture was then stored at −20° C.
About 5 equivalents of each tissue (about 5 μl of protein) was added into the bottom of a small glass autosampler vial. About 95 μl of Tris-buffered saline (TBS) was added to each vial to bring the final volume in each vial to about 100 μl. Two control samples were also prepared by adding 100 μl TBS to two separate vials. […]
To measure labeled juvenile hormone acid, about 250 μl isooctane was added to each vial. […] The amount of ^3H-juvenile hormone acid contained in each vial was determined using a Beckman LS-1801 liquid scintillation counter (available from Beckman, Fullerton, Calif.).
A general note: Size exclusion chromatography separates by hydrodynamic size, large species first.

Data set [2] in a line: general carboxylesterase (CE) activity assay, hydrolysis of α-napthyl acetate, Fast Blue, 590 nm. Conditions: purified recombinant protein from S. frugiperda:pVL-nfE91600 supernatant, size exclusion fractions. In kind it is biochemical. The method, then: Tissue samples and soluble extracts were prepared as described above in Example 1, except not labelled, from unfed (UF) and bovine blood-fed 1st instar flea larvae, bovine blood-fed 3rd instar flea larvae, bovine blood-fed prepupal flea larvae, unfed whole adult fleas, cat blood-fed adult (ACF) whole fleas, cat blood-fed adult fleas that have had their heads and midguts removed (referred to herein as fed adult partial fleas), unfed adult flea midguts and cat blood-fed adult flea midguts. About 5 tissue equivalents of each tissue were assayed for general CE activity using the following method. Tissue samples of about 5 μl were added to separate wells of flat-bottomed microtiter plate (available from Becton Dickinson, Lincoln Park, N.J.). A control well was prepared by adding about 5 μl of Tris buffer to an empty well of the plate. About 95 μl of 25 mM Tris-HCl (pH 8.0) was then added to each sample to increase the volume in each well to about 100 μl. About 100 μl of 0.25 mM α-napthyl acetate (available from Sigma, St. Louis, Mo.) dissolved in 25 mM Tris-HCl (pH 8.0) was then added to each well. […]
The microtiter plate was then analyzed using a Cambridge Technology, Inc. (Watertown, Pa.) model 7500 Microplate Reader set to 590 nm. The absorbance value for the control sample was subtracted from absorbance values of experimental samples, such that the background value was zero.

B1: PfE9528: full-length flea esterase protein of about 528 amino acids, SEQ ID NO:37, encoded by nfE92007 (protein, listed as Ctenocephalides felis)
chain: MADLQVTLLQGTLKGKEQISEKGNVFHSYSGIPYAKPPVGDLRFKPPQPAEPWSGVLDASKEGNSCRSVHFIKKIKVGAEDCLYLNVYVPKTSEKSLLPVMVWIHGGGFFMGSGNSDMYGPEYLMDYGIVLVTFNYRLGVLGFLNLGIEEAPGNVGLMDQVEALKWVKNNIASFGGDPNNVTIFGESAGGASVHYLMLSDLSKGLFHKAISQSGSAFNPWALQHDNNKENAFRLCKLLGHPVDNETEALKILRQAPIDDLIDNRIKPKDKGQLIIDYPFLPTIEKRYQNFEPFLDQSPLSKMQSGNFTKVPFICGYNSAEGILGLMDFKDDPNIFEKFEADFERFVPVDLNLTLRSKESKKLAEEMRKFYYQDEPVSSDNKEKFVSVISDTWFLRGIKNTARYIIEHSSEPLYLYVYSFDDFGFLKKLVLDPNIEGAAHGDELGYLFKMSFTEFPKDLPSAVVNRERLLQLWTNFAKTGNPTPEINDVITTKWDKATEEKSDHMDIDNTLRMIPDPDAKRLRFWNKFL
With B1, the “juvenile hormone esterase activity” value in data set [1] is listed as “juvenile hormone esterase activity”. In data set [2], the carboxylesterase activity result is given as “carboxylesterase activity”.

Values taken from patent publication US6664090B1, “Carboxylesterase nucleic acid molecules, proteins and uses thereof” (Heska Corporation, priority 1996, dated 2003).
